Assay results reported in patent US20250382359A1.

Target: GFRAL (co-expressed with RET on HEK293 stable cells) (UniProt Q6UXV0)
Assay: cell-based or functional assay

GFRAL (co-expressed with RET on HEK293 stable cells), sequence (Q6UXV0 19-394 limits assumed): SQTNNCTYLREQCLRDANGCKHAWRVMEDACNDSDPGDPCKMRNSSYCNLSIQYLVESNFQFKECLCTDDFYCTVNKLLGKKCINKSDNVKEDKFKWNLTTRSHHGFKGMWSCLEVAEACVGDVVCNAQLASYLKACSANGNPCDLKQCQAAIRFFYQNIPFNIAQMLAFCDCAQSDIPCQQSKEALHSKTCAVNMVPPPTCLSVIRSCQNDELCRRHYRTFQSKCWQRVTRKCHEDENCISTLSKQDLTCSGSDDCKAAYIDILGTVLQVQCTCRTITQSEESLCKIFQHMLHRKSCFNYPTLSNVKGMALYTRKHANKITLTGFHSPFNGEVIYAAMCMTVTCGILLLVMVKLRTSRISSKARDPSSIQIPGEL

Luciferase assay, GFRAL/RET/SRE reporter HEK293 cells; EC80 of GDF15: 2 nM | pERK assay, GFRAL/RET HEK293 cells; EC80 of GDF15: 850 pM
Substance: GDF15 (ligand used in the GFRAL/RET cell assays) (from UniProt Q99988 197-308)
